Measurements as given in PMC5339894, “G196 epitope tag system: a novel monoclonal antibody, G196, recognizes the small, soluble peptide DLVPR with high affinity” (Scientific Reports, 2017).

How the values were obtained:
[1] = system: FHG-G196-NAC1; test: immunofluorescence of GFP- and G196-tagged nuclear protein in HeLa cells; format: cell-based, human; details: FHG-G196-NAC1, Alexa-594 / Alexa-488 secondary
Procedure: Figure 5 Application of the G196 epitope tag system for scientific research. (a) Western blot and immunoprecipitation (IP) analysis of FLAG-HA-Emerald GFP (FHG) tagged with C-terminal G196-tag in HeLa cells using mAb G196. HeLa cells were transfected with FHG/pcDNA3 or FHG-G196/pcDNA3. After incubation for two days, the cells were lysed and subjected to Western blotting with anti-FLAG (M2) or G196 mAbs (left panel). These lysates were immunoprecipitated with anti-FLAG (M2) (lanes 7, 8) or G196 (lanes 9, 10) mAbs and subjected to Western blotting with anti-FLAG polyclonal antibody (right panel). (b) Immunofluorescence of GFP- and G196-tagged nuclear protein in HeLa cells using mAb G196. HeLa cells were transfected with FHG-G196-NAC1/pcDNA3. After incubation for two days, the cells were fixed and incubated with mAb G196 and anti-GFP polyclonal Ab, then stained with Alexa-594 anti-mouse and Alexa-488 anti-rabbit secondary antibodies. (c) Western blot and chromatin immunoprecipitation (ChIP) analysis of Atf1-G196-GFP in fission yeast using mAb G196. A DNA fragment containing the transcription factor atf1 gene fused with the G196 epitope-GFP gene was replaced with the genomic atf1 gene. Protein extracts were separated by SDS-PAGE and detected with mAb G196 and anti-GFP polyclonal antibody (left panel). […] Asterisk indicates non-specific band also detected using the second Ab alone. […]

[2] = system: N- and C-terminally G196-tagged protein; test: detection of N- and C-terminally G196-tagged protein; details: this study and refs. 22 and 23
[3] = system: Atf1-G196-GFP; test: immunofluorescence of fission yeast cells; format: cell-based
Procedure: Yeast cells exponentially growing in YES medium at 30 °C were fixed with 3% formaldehyde and incubated at 18 °C for 30 min. After quenching with 250 mM glycine, the cells were washed with PBSEMS (PBS buffer with 1 mM EGTA, 1 mM MgSO4 and 1.2 M sorbitol), resuspended in PBSEMS containing 5 mg/mL Zymolyase 20T (07663-91, Nacalai Tesque) and 0.1% 2-mercaptoethanol, and incubated at 37 °C for 1 h. The cells were washed three times with PBSEMS and resuspended in PBSEMT (PBS with 1 mM EGTA, 1 mM MgSO4 and 1% Triton X-100) and incubated at room temperature for 30 sec. After washing three times with PBSEM (PBS with 1 mM EGTA and 1 mM MgSO4), the cells were incubated in PBSEMALM (PBS with 1 mM EGTA, 1 mM MgSO4, 0.1% sodium azide, 0.1 M L-lysine and 5% skim milk) for 30 min. The cells were resuspended in PBSEMALM containing G196 mAb (1:1000) and anti-GFP rabbit polyclonal antibody (1:1000). After overnight incubation at room temperature, cells were washed with PBSEMALM three times, then resuspended in PBSEMALM containing anti-mouse antibody conjugated with Alexa 594 (1:100) and anti-rabbit conjugated with Alexa 488 (1:100). After one-hour incubation, the cells were washed with PBSEMAL containing 5% skim milk three times and resuspended in PBS containing 0.1% sodium azide. The cell suspension was mixed with an equal amount of 1% low-melting point agarose with DAPI on glass plates.

B1: mAb G196: mouse mAb (IgG1) raised against GST protein bacterially expressed using the pGEX-2T vector (antibody, V domains shown)
VH: QVKLQESGAELVKPGASVKLSCKASGYTFTNYWMHWVKLRPGQGFEWIGEINPSNGGSNYNEKFKRKATLTVDKSSSTAYMQLSSLTSEDSAVFYCSIWDSYFDYWGQGTTLTVSS
VL: NIVMTQSPKSMSMSVGERVTLTCKASENVVTYVSWYQQKPEQSPKLLIYGASNRYTGVPDRFTGSGSATDFTLTISSVQAEDLADYHCGQGYSYPYTFGGGTKLEIK
- immunofluorescence detection of nuclear reporter protein NAC1 [1]: successfully detected the nuclear reporter protein
- detection of N- and C-terminally tagged protein [2]: detected both N- and C-terminally G196-tagged protein
- immunofluorescence recognition of Atf1 ([3]; G196- and GFP-tagged Atf1, mAb 1:1000): recognized G196- and GFP-tagged Atf1
- immunofluorescence of Atf1 compared with anti-GFP polyclonal ([3]; versus polyclonal anti-GFP antibody): comparable to that of a polyclonal anti-GFP antibody
